# Test results taken from patent US20210388096A1 (Astellas, published 2021).
# T1: human Fn14-human Fc fusion protein (human, UniProt Q9NP84 28-79)
# T1 construct: range 1-79; Purified from CHO-K1SV culture supernatant; coated on the ELISA plate
# T1 sequence: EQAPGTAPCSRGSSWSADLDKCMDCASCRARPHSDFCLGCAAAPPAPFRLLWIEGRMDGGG
# T2: human Fn14 on cells (NFkB/HEK293 reporter cells, A375 cells) (human, UniProt Q9NP84 28-129)
# T2 sequence (looked up): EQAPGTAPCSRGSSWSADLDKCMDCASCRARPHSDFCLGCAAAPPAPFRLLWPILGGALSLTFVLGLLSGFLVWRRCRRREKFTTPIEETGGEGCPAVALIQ
# B1: fully humanized anti-human Fn14 antibody 4-1h (antibody, human IgG1, kappa, L234A L235A, V domains shown)
# VH: QVQLQQWGAGLLKPSETLSLTCAVYGGSFSGYYWSWIRQPPGKGLEWIGEINHRGSTNSNPSLKSRDTISVDTSKNQFSLRLRSVTAADTAVYYCAREGISGSMGIYDYSGMDVWGQGTTVTVSS
# VL: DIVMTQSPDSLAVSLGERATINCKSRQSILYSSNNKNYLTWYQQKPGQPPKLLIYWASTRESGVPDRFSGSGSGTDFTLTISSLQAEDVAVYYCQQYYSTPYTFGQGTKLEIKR
# modifications: most of the purified antibodies had pyroglutamylation at the N terminal of the heavy chain and deletion of lysine at the C terminal (Example 5)
# notes: human kappa light chain; Expressed in CHO-K1SV cells; also called fully humanized antibody of 4-1
# B2: murinized anti-human Fn14 antibody 4-1m (antibody, mouse IgG2a, kappa, V domains shown)
# VH: DVQLQESGPGLVKPSQSLSLTCAVYGGSFSGYYWSWIRQFPGNKLEWMGEINHRGSTNSNPSLKSRISITVDTSKNQFFLQLNSVTTEDTATYYCAREGISGSMGIYDYSGMDVWGQGTLVTVSA
# VL: DIVMSQSPSSLAVSVGEKVTMSCKSRQSILYSSNNKNYLTWYQQKPGQSPKLLIYWASTRESGVPDRFTGSGSGTDFTLTISSVKAEDLAVYYCQQYYSTPYTFGSGTKLEIKR
# notes: Framework regions of 4-1h partially substituted with mouse FR; mouse kappa light chain; also called murinized antibody of 4-1h
# Assays:
# [1] = biological target: T3, mouse Fn14-mouse Fc fusion protein (mouse, UniProt Q9CR75 28-75); test: ELISA, Fn14-Fc fusion coated on plate, HRP anti-human kappa detection
# T3 construct: range 1-75; Fn14 part cloned via EcoRI/EcoRV into the multicloning site of pFUSE-mIgG2B-Fc1; not shown: mouse Fc region: mIgG2B-Fc region of vector pFUSE-mIgG2B-Fc1 (InvivoGen)
# T3 sequence (Q9CR75 28-75 limits assumed): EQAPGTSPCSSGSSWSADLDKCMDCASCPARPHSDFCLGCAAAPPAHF
# Description: (§1) Binding activities of 4-1h and 4-1m acquired in Example 4 to a Fn14 protein were evaluated. The human Fn14-human Fc fusion protein and the mouse Fn14-mouse Fc fusion protein acquired in Example 1 were diluted in phosphate buffered saline (PBS) at 1 μg/mL and added to a MaxiSorp 384-well transparent plate (Nunc, 464718) at 15 μL/well. Incubation was performed overnight at 4° C. for Immobilization. On the next day, the solid phase liquid was removed, and washing was performed with a 0.05% Tween-20-containing Tris-buffered saline (TBS-T). PBS containing 20% Blocking One (Nacalai tesque, Inc., 03953-95) was added thereto at […]. The resultant was left at room temperature for 1 hour, and then washed with TBS-T. A dilution series of 4-1h or 4-1m acquired in Example 4 was prepared by dilution in 12 steps with a 4-fold common ratio from a maximum concentration of 30 μg/mL using TBS-T containing 5% Blocking One (hereinafter, referred to as a diluent), and added at 20 μL/well. […] Then, the reaction was stopped by adding a 2M sulfuric acid, and the absorbance at 450 nm was measured with SpectraMax Paradigm (Molecular Devices, LLC). The test was performed in duplicate, and EC₅₀ values were calculated by 4-parameter logistic curve fitting.
# [2] = biological target: T1, human Fn14-human Fc fusion protein; test: as above
# Description: as §1
# [3] = biological target: T2, human Fn14 on cells (NFkB/HEK293 …); test: cell-based or functional assay
# [4] = biological target: T3, mouse Fn14-mouse Fc fusion protein; test: ELISA, Fn14-Fc fusion coated on plate, HRP anti-mouse kappa detection
# Description: as §1
# [5] = biological target: T1, human Fn14-human Fc fusion protein; test: as above
# Description: as §1
Binder,EC50 [1],EC50 [2],"IC50 (ng/mL), inhibition of Tweak-induced NFkB activation (luciferase reporter, NFkB/HEK293 cells), geometric mean of three trials [3]",EC50 [4],EC50 [5]
B1,0.0232 µg/mL,0.0304 µg/mL,41.5 ng/mL,–,–
B2,–,–,–,0.0165 µg/mL,0.0182 µg/mL
